The values that follow come from article PMC3292765 (2012).

The target in this test is Rac1 (Homo sapiens, UniProt P63000). Put plainly: microscale thermophoresis.

B1: p67phox 1-212 (protein)
chain: MSLVEAISLWNEGVLAADKKDWKGALDAFSAVQDPHSRICFNIGCMYTILKNMTEAEKAFTRSINRDKHLAVAYFQRGMLYYQTEKYDLAIKDLKEALIQLRGNQLIDYKILGLQFKLFACEVLYNIAFMYAKKEEWKKAEEQLALATSMKSEPRHSKIDKAMECVWKQKLYEPVVIPVGKLFRPNERQVAQLAKKDYLGKATVVASVVDQD
Broadly, the Kd is the concentration at which binding is half-saturated. In turn, B1 gave a Kd of around 0.04 µM.
